Measurements taken from patent publication US20250340623A1 (AC IMMUNE, published 2025).

How the values were obtained:
alpha-synuclein seeds [1] = molecular target: T1, alpha-synuclein seeds (UniProt P37840 1-140); experiment: cell-based or functional assay
alpha-synuclein seeds [2] = molecular target: T1, alpha-synuclein seeds; experiment: cell-based or functional assay; remark: listed apart in the source
alpha-synuclein fibrils [3] = molecular target: T2, alpha-synuclein fibrils (UniProt P37840 1-140); experiment: SPR, captured bAb
Method: (§1) Binding affinity of alpha-synuclein biparatopic antibodies to monomeric or fibrillar alpha-synuclein species was performed using a single-cycle kinetics method. The instrument was primed with 1×HBS-P+ buffer (10× stock from GE Healthcare, BR-1003-52 diluted in Milli-Q water). Injections of monomeric alpha-synuclein (Boston Biochem, SP-485), increasing in concentration from 0.62-50 nM prepared from serial 2-fold dilutions, were performed with contact times of 300 sec/injection at a flow rate of 30 μL/min. A dissociation phase of 900 sec followed the final 50 nM injection. Regeneration of the sensor to the goat anti-human antibody layer was achieved using 3 regenerations of 10 mM Glycine pH 1.7. […] Regeneration of the sensor to the goat anti-mouse antibody layer was achieved using 3 regenerations of 10 mM Glycine pH 1.7. Results obtained from single-cycle kinetics were evaluated by Biacore 8K evaluation software with 1:1 binding homogenous Langmuir model with a preceeding buffer injection as a blank subtraction. The following kinetic parameters were obtained: on-rate (ka), off-rate (kd), affinity constant (KD, ratio of kd by ka), maximum response (Rmax), and goodness of fit (Chi2).

alpha-synuclein fibrils [4] = molecular target: T2, alpha-synuclein fibrils; experiment: SPR, captured bAb; head says nM, kd/ka gives M
Method: (§2) Any non-covalently bound antibodies were removed by three successive regenerations of 10 mM Glycine pH 1.7 (GE Healthcare, 28-9950-84). Immobilization levels were evaluated following ethanolamine capping (Bound) and finally following regeneration (Final). Non-covalent immobilization of alpha-synuclein biparatopic antibodies on flow cell 2 of channels 1-8 was performed at a final concentration of 5 μg/mL, diluted in 10 mM sodium acetate pH 5.5 (GE Healthcare, BR-1003-52). Non-covalent immobilization of an isotype control antibody on flow cell 1 of channels 1-8 was performed at a final concentration of 5 μg/mL, diluted in 10 mM sodium acetate pH 5.5 (GE Healthcare, BR-1003-52).
as §1
(§3) Kinetic constants were determined from 1:1 homogenous binding models for all cases.

[5] = molecular target: T3, monomeric alpha-synuclein (UniProt P37840 1-140); experiment: SPR, captured bAb; head says nM, kd/ka gives M
Method: as §2, §1, §3

alpha-synuclein fibrils [6] = molecular target: T2, alpha-synuclein fibrils; experiment: SPR, captured bAb; remark: listed apart in the source
Method: as §2, §1, §3

[7] = molecular target: T3, monomeric alpha-synuclein; experiment: SPR, captured bAb
Method: as §2, §1, §3

Binder | aggregation half-time (τ1/2) of seeded alpha-synuclein aggregation, ThT; no antibody 18.0 hours (alpha-synuclein seeds [1]) [h] | IC50, percentage of de novo alpha-synuclein aggregates formed in cells after immunodepletion of seeds (alpha-synuclein seeds [2]) [nM] | fold slower dissociation rate (Kd) from fibrillar than from monomeric alpha-synuclein (alpha-synuclein fibrils [3]) [fold] | Kd (alpha-synuclein fibrils [4]) [nM] | Kd [5] [nM] | koff (alpha-synuclein fibrils [6]) [s⁻¹] | kon (alpha-synuclein fibrils [6]) [M⁻¹ s⁻¹] | koff [7] [s⁻¹] | kon [7] [M⁻¹ s⁻¹]
Fab ACI-7067-1108B11-Ab2 (Fab, V domains shown) VH: EVQLVESGGGLVQPKGSLKLSCAASGFTFNTYAMHWVRQAPGKGLEWVARIRSKGSNYATNYADSVKDRFTISRDDSQSMLYLQMNNLKTEDTAMYYCVRGHGSSYFSYWGQGTLVTVSA VL: QIVLTQSPAIMSASPGERITMTCSANSSVTYMHWYQQKSGTSPKRWIYDTSNLASGVPARFSGSGSGTSYSLTISSMEAEDAATYYCQQWKSHPPTFGAGTKLELK | 22.3 | – | – | – | – | – | – | – | –
ACI-1108B11_27D8 (bispecific antibody, V domains shown) VH 1: EVQLVESGGGLVQPKGSLKLSCAASGFTFNTYAMHWVRQAPGKGLEWVARIRSKGSNYATNYADSVKDRFTISRDDSQSMLYLQMNNLKTEDTAMYYCVRGHGSSYFSYWGQGTLVTVSA VL 1: QIVLTQSPAIMSASPGERITMTCSANSSVTYMHWYQQKSGTSPKRWIYDTSNLASGVPARFSGSGSGTSYSLTISSMEAEDAATYYCQQWKSHPPTFGAGTKLELK VH 2: EVQLVESGGGLVQPKGSLKLSCAASGFTFNTYAMNWVRQAPGKGLEWVARIRSKSNNFATYYADSVKDRFTISRDESESMLYLQMNNLKAEDTAMYYCVRSFDYWGQGTTLTVSS VL 2: DIKMTQSPSSMYASLGERVTITCKASQDINSYLSWFQQKPGKSPKTLIYRAKRLVDGVPSRFSGSGSGQDYSLTISSLEYEDMGIYYCLQYDEFPFTFGSGTKLEIK | – | 8.6 | – | – | – | – | – | – | –
ACI-5A12_3108C10 (bispecific antibody, V domains shown, biparatopic; Arm A ACI-8033-5A12-Ab1, Arm B ACI-7079-3108C10-Ab2; engineered constant domains not specified) VH 1: QVHLKQSGADLVRPGASVKLSCKASGYTFTDYYINWVKQRPGQGLEWIARIYPGSGNTYYNEKFKGRATLSAEKSSTTAYMQLSSLTSEDSAVYFCVVGYYGAWGQGTTLTVSS VL 1: DVVMTQTPLSLPVSLGDQASISCRSSQSLVHSNGKTHLHWYLQKPGQSPKLLIYKVSNRFSGVPDRFSGSGSGTDFTLKISRVEAEDLGVYFCSQSTHVPWTFGGGTKLEIK VH 2: ELQLVESGGGLVRPGGSLKLSCATSGFTFRNYAMSWVRQTPAKRLEWVATISDGGTYTFYSDNVKGRFTISRDNVKNTLYLQMSHLKSEDTAMYYCSRAGSGHWGQGTTLTVSS VL 2: not shown | – | 22.7 | ≥ 100 | 8.21 | 34.5 | 9.19e-05 | 11200 | > 1 | > 2.9e+07
ACI-4F3_5A12 (bispecific antibody, V domains shown) VH 1: EVQLQQSGPELVKPGASVKISCKASGYTFTDYYMNWVKQSHGKSLEWIGDINPNTGTNSYNQKFKGRASLTVDKFSSAAYMELRSLTSEDSAVYYCARTGYGDPISSYYYALDYWGQGTSVTVSS VL 1: DIVMSQSPSSLAVSAGEKVTMSCKSSQSLLNSRTRKNYLAWYQQKPGQSPKLLIYWASTRESGVPDRFTGSGSGTDFTLTISSVQAEDLAVYYCKQSYNLWTFGGGTKLEIK VH 2: QVHLKQSGADLVRPGASVKLSCKASGYTFTDYYINWVKQRPGQGLEWIARIYPGSGNTYYNEKFKGRATLSAEKSSTTAYMQLSSLTSEDSAVYFCVVGYYGAWGQGTTLTVSS VL 2: DVVMTQTPLSLPVSLGDQASISCRSSQSLVHSNGKTHLHWYLQKPGQSPKLLIYKVSNRFSGVPDRFSGSGSGTDFTLKISRVEAEDLGVYFCSQSTHVPWTFGGGTKLEIK | – | 15.2 | – | – | – | – | – | – | –
Fab ACI-7067-1108H1-Ab1 (Fab, V domains shown) VH: EVKLVESGGGLVQPGGSMKLSCTASGFTFSDAWMNWVRQSPEKGLEWVAEIRNKAHNHATNYAESVKGRFTISGDDSKSSVYLQMNNLRAEDTGIYYCTIYSFWGQGTLVTVSA VL: SIVMTQTPKFLLVSAGDRVTITCKASQSVTNYVAWYHQKPGQSPKLLIYSASNRYSGVPDRFTGSGYGTDFTFTINTVQTEDLAVYFCQQDYRIPYTFGGGTKLEIK | 19.4 | – | – | – | – | – | – | – | –
Fab ACI-7067-1101C8-Ab2 (Fab, V domains shown) VH: EVQLVESGGGLVQPKGSLKLSCAASGFSFNIYAMNWVRQAPGKGLEWVARIRSKSNNYATYYADSVKDRFTISRADSESMLYLQMNNLKTEDTAMYYCVRVGLRFYAMDYWGQGTSVTVSS VL: DVLMTQTPLSLPVSLGDQASISCRSSQSIVHSNGNTYLEWYLQKPGQSPKLLIYKVSNRFSGVPDRFSGSGSGTDFTLKISRVEAEDLGVYYCFQGSQGPLTFGAGTKLELK | 26.3 | – | – | – | – | – | – | – | –
Fab ACI-7067-1113D10-Ab1 (Fab, V domains shown) VH: EVQLVESGGGLVQPKGSLKLSCAASGFTFNTYALHWVRQAPGKGLEWVARIRSKSSNYATYYADSVKDRFTISRDDSQSMLYLQMNNLKTEDTGMYYCVRGGVSPFDYWGQGTTLTVSS VL: QIVLTQSPAIMSASPGEKVTMTCSASSSVSYMHWYQQKSGTSPKRWIYDTSKLASGVPARFSGSGSGTSYSLTISSMEAEDSATYYCQQWSNNPPTFGGGTKLEIK | 21 | – | – | – | – | – | – | – | –
ACI-1113D10_4317A4 (bispecific antibody, V domains shown, biparatopic; Arm A ACI-7067-1113D10-Ab1, Arm B ACI-7088-4317A4-Ab1; engineered constant domains not specified) VH 1: EVQLVESGGGLVQPKGSLKLSCAASGFTFNTYALHWVRQAPGKGLEWVARIRSKSSNYATYYADSVKDRFTISRDDSQSMLYLQMNNLKTEDTGMYYCVRGGVSPFDYWGQGTTLTVSS VL 1: QIVLTQSPAIMSASPGEKVTMTCSASSSVSYMHWYQQKSGTSPKRWIYDTSKLASGVPARFSGSGSGTSYSLTISSMEAEDSATYYCQQWSNNPPTFGGGTKLEIK VH 2: EVQLQQSGAELVRPGASVKLSCTASGFNIKDDYMHWVKQRPEQGLEWIGWIDPENGDTEYASKFQGKATMTADTSSNTAYLQLSSLTSEDTAVYYCKTWGTTQALFPYWGQGTLVTVSA VL 2: DIVMTQSQKFMYTSVGDRVSITCKASQNVGNAVGWYQQKAGQSPKLLIHSASNRYTGVPDRFTGTGSGTDFTLTINNMQSEDLADYFCQQYRSYPLTFGAGTKLELK | – | – | ≥ 100 | 0.00614 | 0.416 | 3.48e-07 | 56800 | 0.000514 | 1.23e+06
ACI-4F3_4317A4 (bispecific antibody, V domains shown, biparatopic; Arm A ACI-8033-4F3-Ab1, Arm B ACI-7088-4317A4-Ab1; engineered constant domains not specified) VH 1: EVQLQQSGPELVKPGASVKISCKASGYTFTDYYMNWVKQSHGKSLEWIGDINPNTGTNSYNQKFKGRASLTVDKFSSAAYMELRSLTSEDSAVYYCARTGYGDPISSYYYALDYWGQGTSVTVSS VL 1: DIVMSQSPSSLAVSAGEKVTMSCKSSQSLLNSRTRKNYLAWYQQKPGQSPKLLIYWASTRESGVPDRFTGSGSGTDFTLTISSVQAEDLAVYYCKQSYNLWTFGGGTKLEIK VH 2: EVQLQQSGAELVRPGASVKLSCTASGFNIKDDYMHWVKQRPEQGLEWIGWIDPENGDTEYASKFQGKATMTADTSSNTAYLQLSSLTSEDTAVYYCKTWGTTQALFPYWGQGTLVTVSA VL 2: DIVMTQSQKFMYTSVGDRVSITCKASQNVGNAVGWYQQKAGQSPKLLIHSASNRYTGVPDRFTGTGSGTDFTLTINNMQSEDLADYFCQQYRSYPLTFGAGTKLELK | – | – | ≥ 100 | 0.00152 | 1.17 | 7.84e-08 | 51700 | 0.00103 | 884000
ACI-2503C6_1101C8 (bispecific antibody, V domains shown, biparatopic; Arm A ACI-7079-2503C6-Ab1, Arm B ACI-7067-1101C8-Ab2; engineered constant domains not specified) VH 1: DVQLQESGPGLVKPSQSLSLTCSVTGYSITSGYYWNWIRLFPGNKLEWLGYINYDGSNNFNPSLKNRISITRDTSKNQFFLKLNSVTSEDTATYFCLRGDWDWGQGTLVTVSA VL 1: not shown VH 2: EVQLVESGGGLVQPKGSLKLSCAASGFSFNIYAMNWVRQAPGKGLEWVARIRSKSNNYATYYADSVKDRFTISRADSESMLYLQMNNLKTEDTAMYYCVRVGLRFYAMDYWGQGTSVTVSS VL 2: DVLMTQTPLSLPVSLGDQASISCRSSQSIVHSNGNTYLEWYLQKPGQSPKLLIYKVSNRFSGVPDRFSGSGSGTDFTLKISRVEAEDLGVYYCFQGSQGPLTFGAGTKLELK | – | – | ≥ 100 | 0.00248 | 1.14 | 1.53e-07 | 61600 | 0.00025 | 220000
